According to the DeepSol protein solubility set:

Assay: soluble on expression in E. coli; label from the status in PepcDB or PDB records

| Sequence | soluble on expression in E. coli |
| --- | --- |
| MGSDKIHHHHHHMKLGVFTVLYGNLSFTEMLDKVKGAGVQAVEIGTGGYPGDAHCPRQELLTSAEKRKRYQEELEQRGLLLGSFSCHGNPLSPDEAFRKESDQALRETIELAGKMNVPVVNCFSGTAGDHEGAKYPNWPVAPWPNEYRHILEWQWEEKLIPYWKEIGEWAETHGVKVALELHGGFLVHTPYTLLTLRKATSPAIGANLDPSHLWWQGIDPVAAIKILGREGAIHHFHAKDTFIDQEQVNMYGLTDMQPYTHIQTRAWNFRSVGCGHDLHEWTQMISALRTYGYDHVISIEHEDPLMSIDEGFETAVRNLKPLLIKEKPTEMWWA | not soluble |
| MGSDKIHHHHHHMNKEHICFDFDSNPAFQTIDYEVAARSFVPGYESIFNMAVALLDASVPEPAHLLIVAAGGGMELITFGQARSHWLFTGVDPSAKMLAIAQEKVAKQGLTNRVKLHQGLTHELPVTTLYDAATCILAMHFLPDDGAKLLLLQSISQRLKPGAKLILVDLCEEKGSERFNDFLKAYKYHARNLGMSPEIVEETASKVVHIHCISEERTIELLQEANFSKITRFFTALWFRGWIATKNT | not soluble |
| MNKILIIISCILIMLTAFSCRRNVFNPNIPPRTEFIEDPIANLSIPSKDATIKVTPVEASINGYDSKSGQYGKMVYGHFEHYFEFKGHYYLTAAYQYIYGYTNEVIMIGNTTLMNYPNGHILEIDVNDGFKMKEVKANLGRTVPEYTRIAKIANGNAYQDDTYIYVQDSAGANYFKTSDFKSWTDTLSTTPPAGTTKREAVTMNRVQITANNGITYTYVYTGGGLQFSIERLDNRMKQLAQRLETKFTFKEEDFNNHHMFDIGINISTGTTADYRINPVEYIENDTNYIWIGKQSPHQIWLMPVKKDGKDYLIRFVEHCAGGGYYTIKMLETNINTYKKEAETALSKALAAVASDKPQAEIEQACYESIKADANYKANQYFYDVATKMGGLQGFWVGSPAVTEAGFISPNKPLTHYVIEFIDIQQ | not soluble |
| MELTMAKELIFIDWDDTLVNRENAEDFESVTDENNTIYQMSPMFIGAVEALKQLQEKYHVVIVSSRGDLNRLRQLQLQSYDLESSIMPLENFTFEDNDNRLLFTRYGETNFPDKASFILYIQKMSGNKIKVFIDDDHTEIEAAQSKGIPTIHATHNKYLQNTEQFFSGLIHQVDNMELSHIFNKVAAEIRNNSRSISWGRQIAGFFSVHLPIAQSLENLASKLQRKSANEVSEEFDQYLKKIAYDPNKKGDIAVSLTKAKTAIDKHISAPIEIKEDQPFLNRMI | not soluble |
| GPGSMELTEEERGLLILRLHQVLRPFLLRRTKADVDSTLRMTFHHMWCPLSAMQQRLLCMLREQRRIPTVLGMAGGYSGKSSSSSEADNEEEEEAAGAADAAAHTSTFPAAEIGADESTGCTPYIAVAALAADALHGKASPDLDPLQARNETAMPRDRLAELVWRHLPALASTESSDILRCAVQQDRALGLTSAGVSESSARLVCNHAFLLPFFSQVLHRHGLDEVTQEGCNDADAAAVATSESSVVGAEAAERCGAAGLTLACSGKFLVLHLLLSRLYVAQRKVVLFTHWLNCVDLLVDYLYSRGWADHAEVLTGGSSEAERLTSVRRFREDPGCLFFLLSIKAGGCGINLQAAHMVVLVDRDYTVTNEDQALARVYRIGQRYTVRAVYLATTDSSEQHVAQRATAKNKPRQAIINDGVYQVTTASEGERVGETGEAVTAAKFADPPSHAYNELDTSELWRSISGATTPPSPTTAMQEARRPECDGTASGAARPAPFSLPPPEAFWVALSCLVESMDELVLTEEDRAAATVRSAEEERRSMGCTPANSAAARLLATRPPRSTAELHLRLQGGRDEMFSGPQRERGVAPSLSGTAASDAYLGVWKQSAEAPTTGDRTRSHTPSEPQAAALAAAPQPTPRSAPVTDPLQNSALFWLEYSHLLRIAGRGPYLLSDSLRVAVTNDTRKNDPEERVRRRQRRDRRVAKRLRLASVDVPDDFREACWAKEGIDDDAEVAERYLRFLDANAGKRRQRRRKDAG | not soluble |
| MLFSLKYLGMTLVEQPKGEELSAAAIKRIVATAKASGKKLQKVTLKVSPRGIILTDNLTNQLIENVSIYRISYCTADKMHDKVFAYIAQSQHNQSLECHAFLCTKRKMAQAVTLTVAQAFKVAFEFWQVSKEEKEKRDKASQEGGDVLGARQDCTPPLKSLVATGNLLDLEETAKAPLSTVSANTTNMDEVPRPQALSGSSVVWELDDGLDEAFSRLAQSRTNPQVLDTGLTAQDMHYAQCLSPVDWDKPDSSGTEQDDLFSF | soluble |
| NSNFINIGERTNVAGSRKFARLIREKNYEEALTIARHQVENGAQIIDINFDDALLDARSEMETFLRLIASEPEISKVPVMIDSSNFEVLKVGLKSIQGKAIVNSISLKVGEEKFIEEAKFIKNFGAGVVVMAFDEEGQAATYERKIEICKRAYTILTEKVEFPPENIIFDPNILSIATGIEEHDNYAVNYIKAVKWIKENLPYAKVSGGVSNLSFSFRGNDAIRRAMHSVFLYHAINAGMDMGIVNPAMIDLYDDIDKDLLEKVENVVLNKSSNASESLLEFAQTYKKTTETLEKH | not soluble |
| MPPVYSQPELSISIAGLRLQRPVGNASGILGWEPREARLVEEGGGGFFVAKSVTYQPRKGYPQPHLYPVAGGIVNAVGLANPGFREASKMLAQTVEEASIPVIASIAGGAPGEWVEMASTLEEAGVSAVELNLSCPHFAGGGLELGQDPAAVASVVSAVASTLRIPVIAKLGYSDRLVDAASKALEAGARGLTLINSMRAMKIDVYAKKPVLGNRVGGLSGKPIHPIAVRAVYEVYGETRADIFAAGGVESWEDAVEFYLAGAKAVQVGAAFITIGPHVLRSIVEGVRRYLWVEGFRSLQDIVGYAHRA | soluble |
| MHHHHMITLENPDIKYPLRLIDKEILSHDTRRFRFALPSPQHILGLPIGQHIYLSTRIDGNLVIRPYTPVSSDDDKGFVDLVVKVYFKETHPKFPAGGKMPQYLENMNIGDTIEFRGPNGLLVYQGKGKFAIRADKKSNPVVRTVKSVGMIAGGTGITPMLQVIRAVLKDPNDHTVCYLLFANQSEKDILLRPELEELRNEHSSRFKLWYTVDKAPDAWDYSQGFVNEEMIRDHLPPPGEETLILMCGPPPMIQFACLPNLERVGHPKERCFTF | soluble |
| AHHHHHHGSLLPDWKIRKEILIEPFSEESLQPAGYDLRVGREAFVKGKLIDVEKEGKVVIPPREYALILTLERIKLPDDVMGDMKIRSSLAREGVIGSFAWVDPGWDGNLTLMLYNASNEPVELRYGERFVQIAFIRLEGPARNPYRGNYQGSTRLAFSKRKKL | soluble |
| GRAGGRTLGEQWKEKLNAMGKEEFFSYRKEAILEVDRTEARRARREGNKVGGHPVSRGTAKLRWLVERRFVQPIGKVVDLGCGRGGWSYYAATMKNVQEVRGYTKGGPGHEEPMLMQSYGWNIVTMKSGVDVFYKPSEISDTLLCDIGESSPSAEIEEQRTLRILEMVSDWLSRGPKEFCIKILCPYMPKVIEKLESLQRRFGGGLVRVPLSRNSNHEMYWVSGASGNIVHAVNMTSQVLIGRMDKKIWKGPKYEEDVNLGSGTRAVGK | soluble |
| MGSDKIHHHHHHMNGALDVLAPAEVIVAATAPADNEASDMPPVEIVLDSPPVSAEMVFDEDADLLDRLATDDEAAFRMLVERHIDRAYSIALRILGNSADAEDVVQDTMLKVWTHRGRWQHGRAKFSTWLYRVVSNRCIDLRRKPRTENVEAVPEVADTQPDAVRVIERNELSNLLEAAMQRLPEQQRIAVILSYHENMSNAEIAEVMDTTIAAVESLLKRGRQQLRARLSGDESELRAAFTDF | not soluble |
| MGSDKIHHHHHHMNILFVAPYTPSPIRVRPYQFIRHLARRGHTITLVCVADNEAALAELRTICRRVVAVPTRTGDHVLAYIRALPTRLPLQAAHCLTPAMITAVTREIQSGDHDVIHIEHLRAAEIGLAALHQSGGGLPVVLDAVDSISLLFERTFRRSSSLSGRLRALIDLARTRHYEATYPHRFAAVVVTSPEDRWALMTLNQTLSHPGHNPLVVAPNGVDLEYFQPHTGPRHPASLVFTGKMSYHANEAAARYLVEAIMPRVWAVRPEVTVTLAGAEPGAHIRAYAHDPRITVTGAVPDLRPYLTQATIAVAPIRYGVGVQNKVLEAMATATPVITARQATVALSVQPGHDLIVADDAAEFAQAILNLLADPERRDRLGQAGRMYVERHHHWQQSVTCLESVYRAVTTPVYTH | not soluble |
| MGSDKIHHHHHHMIDVEEILSKMNLNQKINYDRVMQKMVQVWEKNEQRPTILMHVCCAPCSTYTLEYLTKYADVTIYFANSNIHPKAEYHKRAYVTKKFVSDFNERTGNSVQYLEAPYEPNEYRKLVRGLEEEPEGGDRCQVCFDYRLDKTAQVAMDLGFDYFGSALTISPHKNSQTINSIGIDVQKIYTTHYLPSDFKKNQGYKRSVEMCEEYDIYRQCYCGCVYAAQAQNIDLVQVKKDATAFLLDKDVEKDYSHIKFTVTKLDI | not soluble |
| MGSDKIHHHHHHMLGTLKKLRAHLDEAQQVQYQLVVGEELLPLNPLIGQPLTLTHTGNIFCCNCGKKTKKSYSQGHCFVCMQKLASCDMCIMKPETCHFDQGTCREPEWAQSHCFVPHYVYLSNTSGIKVGITRHTQLPSRWIDQGATQGLPIFKVATRQISGLVEVELAKLINDKTHWQAMLKGHADDIDLQAKAAELIPHIEAKLHEIGMQKGNYSIERLQENIQTIHYPIEVFPKKITSHNFDKEAVVSGILQGIKGQYLLFDTGVINIRKFTAYEVSVTLTG | not soluble |
| MGSDKIHHHHHHVKLHVIHYNDLHSHFDMWPRYMSFMKEHRTYDSLVFDLGDHADRVAPATEATQGKINTHLLNELSPTAVTIGNNEGITFPHDWLAELYSDATFPVLVSNLSAPFAKAGMIQELPTGKVGIFGLTAPYYELYELLGWSIENPFEAAAREIEALRDQVDVLICLSHLGFYQDEDLAERFPELDLIIGSHTHHVLDDGVVRNGVLIAQAGKHGQYAGEIYLNTDTGEKEAVLHPLESYPEDEATAVLLDKEQYLAERQMKQPIGRTSGLANDWFNPSPFTQLLADTMRDWCQADLACVPAGMLLGSLSPGPVSSYDLHRLCPHPINPCKVTMTGKELKQFIAEVDTNRFEQLKVRGLGFRGKLMGKMHYAGNRQHLDDAKHYTVVLPDMFTFGPLFPEIKEMPKEYFMPELLRDLLFDRLSEKSEFGELPIRKH | not soluble |
| MNRIAFDAKRITSNATGLGNYSRFVVEALAAFHSEHRYYLCSPGKGNPALYSALQQREGIEWLLPEGRRMGGTFWRNFGVVPRLQKEGIDLFHGLSHELPLGIYGKGIATVVTIHDLIFIRYPHYYKPVDRLLYRLKYGHAARCADRVIAISEQTKRDVMEFFHVPADRIDVVYQGCSPAFGQATEEDESRARERYALPERYLLYVGSIETRKNLRLAVEALAHCRDRHIRLVAVGKRTPYCAEVQQCAERSGVADRLVMLHDVPFAFLPGIYRGAEVFVYPSRFEGFGIPIVEALASGVPVVAATGSCLEEAGGPSSLYTDPDDAEMMASMLDSILSDSSLREKMIADGRTYIERFSPEAVARSLMHVYDKVL | not soluble |
| MKKTQRKEIENVTNITGVRQIELWRRDDLQHPRLDEVAEEVPVALVYNGISHVVMMASPKDLEYFALGFSLSEGIIESPRDIFGMDVVPSCNGLEVQIELSSRRFMGLKERRRALAGRTGCGVCGVEQLNDIGKPVQPLPFTQTFDLNKLDDALRHLNDFQPVGRLTGCTHAAAWMLPSGELVGGHEDVGRHVALDKLLGRRSQEGESWQQGAVLVSSRASYEMVQKSAMCGVEILFAVSAATTLAVEVAERCNLTLVGFCKPGRATVYTHPQRLSN | not soluble |
| GPGSMRLTSRGSHNSSQVVYLLDTREFITDCSTVRQVTHFAHVHRLGSPLWLSCELASALGLTLRYMCSPLNIWSPLTGESFVQLASSPALARDTLYKFPINKEFLAPGGVLPHNSGEGSLMALSAAASSDGKPRWYNIPKDVSHLFVLPKNLCQLSVPVHRGGFRPRPFNLWVSTVIAVRMGGLAEAVKTVRTPSSFMTLVNADQMYPSALLAEKELECVLLMRKEGRLGEM | not soluble |
